{"source": "the nanobody polyreactivity screen of Harvey et al. (2022)", "data": [{"experiment": "yeast display, Sf9 membrane polyspecificity reagent, FACS + sequencing; frameworks hold sequencing errors", "outline": "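A nanobody's polyreactivity label depends on the gate it was sorted from. Yeast display cells were stained with 10% biotinylated, detergent-solubilized Sf9 membrane reagent for 1 hour at 4 °C, enriched on streptavidin microbeads and sorted by FACS. The low and high (top ~1%) gates were set on anti-HA fluorescence for expression and streptavidin fluorescence for reagent binding.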", "values": [{"sequence": "QVQLVESGGGLVQAGASLRLSCAASGNIFGLYAMGWYRPAPGKERELVAAISDGVSTNYADSVKGRFTISRDNAKITVYLQMNSLKPEDTAVYYCAADQEGYGNWDSEYDYWGQVTQVTVSS", "polyreactivity (PSR sort gate)": "low polyreactivity"}, {"sequence": "QVQLVESGGGLVQAGGSLRLSCAASGSTLSIYAMGWYRQAPGKERELVATIRWSAGRTSYADSVKGRFTISRDNAMNTVYLQMNSLKPEDTAVYSCNAVRYRYYFYWTGKSYDYWGQGTQVTVSS", "polyreactivity (PSR sort gate)": "high polyreactivity"}, {"sequence": "QVQLVESGGGLVQAGGSLRLSCAASGSIFSHYVMGWYRQAPGKERELVAAISRSGGTTYYADSVKGRFTISRDNAKNTVYLQMNSLKPEDTAVYYCNVRGEPYPYYDGYEYDYWGQGTQVTVSS", "polyreactivity (PSR sort gate)": "low polyreactivity"}, {"sequence": "QVLLVESGGGLVQAGGSLRLSCAATGSTFIRNAMGWYSQAPGKERELVAVISSGGSTYYADSVKGRFTISREIAKNTVYLQMNSLKPEDTAVYYCPAGDPQKEDYWGQGTQVTVSS", "polyreactivity (PSR sort gate)": "low polyreactivity"}, {"sequence": "QVQHVESGGALVQAGGSLRLSCADSGRTFIFYAMGWYRQAPGKETELVASTSSGGSTNYADSVKGRFTISRDNAKNTVYLQMNILKPEDTAVYYCATRQYLYYSRGYGYWGQGTKVTVSS", "polyreactivity (PSR sort gate)": "low polyreactivity"}, {"sequence": "QVQLVESGGGLVQAGGSLRLSCAASGRIFWVYVMGWYRQAPGKERELVADITSIGGSTYYADSVKGRFTISRDNAKNTVDLQMNSLKPEDTAVYYCAAARRPTYCPVYPYFGYEYWGQGTQVTVSS", "polyreactivity (PSR sort gate)": "low polyreactivity"}, {"sequence": "QVQLVESGGGLVQAGGSLRLSCAASGSIFTNNAMGWYRQAPGKERELVAGISFRGSSTYADSVKGRFTISRDNAKNTVYLQMNSLKPEDTAVYYCAAEWFDLEDDYWGQGTQVTVSS", "polyreactivity (PSR sort gate)": "low polyreactivity"}, {"sequence": "QVQLVESGGGLVQAGGSLRLSCAASGFIIAPNAMGWYRQAPGKDRELVAAISGGGSTYYADSVKGRFTISRDNAKNTVYLQMNSLKPEDTAVYYCAVAGRRGDEYDYWGQGTQVTVSS", "polyreactivity (PSR sort gate)": "low polyreactivity"}, {"sequence": "QVQLVESGGGLVQAGGSLRLSCAASGRIFVYNAMGWYRQAPGKERELVAGINGSGGSTYYAASVKGRFRISRDHAKNSVYLQMNSLKPEDTAGYYCNAWISYGYFIFDYWGQGTQVTVSS", "polyreactivity (PSR sort gate)": "high polyreactivity"}, {"sequence": "QGQLVESGGGLVQAGGSLRLSCAASGFSYGFYAMGWYRQAPGKERELVASNSNGDSTNYADSVKGRFTISRDNAKNTVYLQMNSLKPEDTAVYYCATYGGYNPSPLYWGQGTQVTVSS", "polyreactivity (PSR sort gate)": "high polyreactivity"}, {"sequence": "QVQLVESGGGLVQAGGSLRLSCAASGRIFGYYGMGWYRQAPGNERELVAAITYRGGSTYYADSVKGRFTISRDNAKNTVYLQMNSLKPEDTVVYYCGADGYSNYRYLYDYWGQGTQVTVSS", "polyreactivity (PSR sort gate)": "low polyreactivity"}, {"sequence": "QVQLVESGGGLVQAGGSLRLSCAASGLIFVANAMGWYRQAPGKERELVAAISRSGGITYYADSVKGRFTISRDNAKNTVYLQMNSLKPEDTAVYYCAAELVYFFIYDYWGQGTQVTVSS", "polyreactivity (PSR sort gate)": "low polyreactivity"}, {"sequence": "QVQHVESGVGLVQAGGSLRLSSAASGRTFSDNAMGWYRQAPGNERELVAAISRSGGRTYYADSVKGRFTISRDNAKNTVYLQMNSLKPEDTAVYYCAAAPSVSGTRLYEYWGQGTQVTVSS", "polyreactivity (PSR sort gate)": "high polyreactivity"}, {"sequence": "QVQLVESGGGLVQAGGSLRLSCAASGRIFPGNPMGWYRQATGQERELVAGISFSGGRTYYADSVKGRFTISRDNAKNTVYLQIISLKPEDTAVYYCATKYQQHCWSYDYWGQGTQVTVSS", "polyreactivity (PSR sort gate)": "low polyreactivity"}, {"sequence": "QVQLVESGGGLVQAGGSLRLSCAASGRTFYQYDMGWYRQEPGKERAFVADIDWSGGSTYYADSVKGRFTISRDNAKNTVYLQMNSLKPEDTAVYYCNADAYPHPVVGYDYWGQGTQVTVSS", "polyreactivity (PSR sort gate)": "low polyreactivity"}, {"sequence": "QVQLVESGGGLVQAGGSLRLSCAASGITFDYYAMGWYRQEPGKERELVAAISSAGRTYYADSVKGRFTISRDNAKNTVYLQMNSLKPEDTAVYYCAATAFSYYPYHGDYWGQGTQVTVSS", "polyreactivity (PSR sort gate)": "high polyreactivity"}, {"sequence": "QVQLVESGGGLVQAGGSLRLSCAASGFTFHRNAMGWYRQAPGKERELVAAISTRGGSTAYADSVKGRFTISRDNAKNTVYLQMNSLKPEDTAVYYCAARVRVTGTYYTKYDYWGQGTQVTVSS", "polyreactivity (PSR sort gate)": "high polyreactivity"}]}]}
